“Also recorded” adds a separate entry of the source. Bridges are numbered along the chain shown (N, C = ends). Where no end group is shown, it is not given here.
Experiments:
Human MCP-1 = target: T1, Human MCP-1 (Homo sapiens, UniProt P13500); experiment: ELISA analysis of the synthetic chemokine-binding peptide; conditions: chemokine-coated wells, specific binding = at least two fold of binding to control proteins (BSA, Actin, Fibronectin)
T1 construct: purchased PeproTech, Inc. 300-04
Description: (§1) Recombinant chemokines were ordered from PeproTech, Inc. (Rocky Hill, N.J., USA). Human SDF-1α (Cat. No. 300-28A), human MIG (Cat. No. 300-26) and human IL-8, (72 amino acids) (Cat. No. 200-08M), belong to the alpha-chemokines (C-X-C) family. Human MCP-1 (MCAF) (Cat. No. 300-04) and human Eotaxin (Cat No. 300-21) belong to the beta-chemokines (C-C family). All chemokines were prepared according to the company recommendations.
(§2) Peptides were synthesized in the Weizmann Institute of Science, Rehovot, Israel, in order to perform tests for characterization of their influence on the biological activity of the chemokines. The format of the various synthesized peptides was as follows: The cyclic peptides, ACX7CGGGSK-biotin-G and the linear peptides, X12GGGSK-biotin-G. The peptides were biotinylated on their C-termini; the biotin will serve as a detector during the following experiments. Each synthetic peptide was dissolved to concentration of 1 mg/ml (˜0.6 mM) in 4% DMSO (Dimethyl Sulphoxide, Sigma, Cat. # D-2650).
(§3) NUNC-Immuno™ MaxiSorp™ plates (Cat. No. 4-42404) were coated with the appropriate chemokine (0.1 ml/well, 0.1-1.0 μg/ml in 0.1 M NaHCO3, pH 8.6), overnight at 4° C. The plates were then blocked with 0.2 ml/well of blocking buffer (5 mg/ml BSA in 0.1 NaHCO3). Control wells were treated with blocking buffer alone, with no addition of target protein (chemokine). The plates were washed 6 times with PBST (0.1% Tween 20 in PBS), followed by incubation for 45 minutes at room temperature with 10-fold serial dilutions of individual synthetic peptides (10pg-10 μg) with 1% BSA (PBST-BSA)/well. After the plates were washed 6 times with PBST, the bound peptides were probed by HRP-SA Conjugate, diluted 1:10,000 to 1:20,000 in PBST-BSA, 0.1 ml/well for 45 minutes at room temperature. The target-bound synthetic peptides probed with HRP-SA were quantified by DAKO TMB one-step substrate system, followed by the addition of stop solution, HCl—H2SO4 mixture (0.1 ml/well) (1N HCl, 3N H2SO4). The results were analyzed by ELISA reader at OD450.
(§4) The present invention identifies chemokine-binding peptides with biological activity. The binding specificities of the various peptides to the chemokines were determined by screening against BSA, Actin and Fibronectin-coated wells as negative controls in parallel experiments. The binding level of the peptides to the various chemokines, which reached at least two fold of the binding level to the control proteins, was considered a specific binding.
(§5) The specific binding of the peptides was detected by screening methodology, using ELISA, as described in “Materials and Methods”, employing microplates coated with the various chemokines to be checked. The binding specificities of the various peptides to the various chemokines were determined by screening against BSA, Actin and Fibronectin-coated wells as negative controls in parallel experiments.
(§6) Again, the specificity of the binding, either to one chemokine or more, was established by comparing binding level with the control binding level to non-related proteins, (shown in the Figure as a broken line).

MIG [1] = target: T2, MIG (Homo sapiens, UniProt Q07325); experiment: as above; conditions: chemokine-coated wells, specific binding = at least two fold of binding to control proteins (BSA, Actin, Fibronectin)
T2 construct: purchased PeproTech, Inc. 300-26
T2 sequence (Q07325 23-125): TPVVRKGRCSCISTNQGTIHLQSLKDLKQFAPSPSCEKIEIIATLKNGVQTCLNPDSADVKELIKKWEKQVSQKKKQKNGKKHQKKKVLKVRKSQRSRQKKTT
Description: as §1, §2, §3, §4, §5, §6

MIG [2] = target: T2, MIG; experiment: Biovalidation: laminar flow assay, chemokine and VCAM-1 activated adhesion of T cells; type: cell-based; conditions: for Reduction of the activity of MIG: T cell adhesion under flow
Description: 50 ml blood was added to 10 ml Dextran (Dextran T-500 6% w/v) in PBS (phosphate buffer saline), and 7 ml citrate buffer (25 g citrate, 8 g citric acid in 500 ml PBS). The solution was incubated for 30 min at 25° C. 10 ml Ficoll 1077 (Sigma) was added to the bottom of the tube. The tube was then centrifuged at 2,000 rpm for 30 min, at 18° C., (with the brake mode of the centrifuge off). The interphase was collected and washed twice with 8 ml PBS-5% FCS (fetal calf serum), followed by centrifugation at 1,400 rpm, for 5 min, at 18° C. The cells were re-suspended in PBS-5% FCS at a concentration less than 10^8/ml. 2 ml of the cell solution were applied and incubated for 45 min at 25° C. on a Perspex Nylon wool column, which was pre-soaked with PBS-5% FCS. Each column was washed with 8 ml PBS-5% FCS and the cells (T-cells and erythrocytes) were eluted by 50 ml of 5 mM EDTA in PBS. A red pellet was obtained by centrifugation at 1,400 rpm, at 4° C., for 5 min, with the brake on. In order to perform lysis of the erythrocytes, the red pellet was re-suspended in 5 ml lysis-buffer (155 mM NH4Cl, 10 mM KHCO3, 0.1 mM EDTA, X0.1PBS) for 4 min, followed by immediate addition of 50 ml of PBS-EDTA.
Following centrifugation at 1,400 rpm, at 4° C., for 5 min with brake on, the pellet was washed again with 50 ml PBS-EDTA and re-centrifuged under the same conditions. A white pellet was obtained and re-suspended in RPMI/10% FCS/L-glutamine/sodium pyruvate/antibiotics at a concentration of 3^X10^6 cells/ml. The cells were incubated for 2 h at 37° C., followed by collection of the non-adherent cells. The cells were ready for use in experiments after overnight incubation at 37° C. […]
Laminar flow assays were performed as follows. Polystyrene plates (B.D) were coated with soluble VCAM-1 at 10 μg/ml in the presence of 2 μg/ml HSA carrier. The plates were washed three times with PBS and blocked with HSA (20 μg/ml in PBS) for 2 hrs at room temperature. Alternatively, washed plates were coated with 10 μg/ml MIG chemokine in PBS for 30 min at room temperature, before being blocked with HSA. The plates were assembled as the lower wall of a parallel wall flow chamber and mounted on the stage of an inverted microscope. The peptide, as described previously, (10 μg/ml) was allowed to settle on the substrate coated chamber wall for 10 min, at 37° C. and then washed. T cells (5×10^6/ml, purity >98%) were suspended in binding buffer, perfused into the chamber and allowed to settle on the substrate coated chamber wall for 1 min, at 37° C. Flow was initiated and increased in 2 to 2.5 fold increments every 5 sec. generating controlled shear stresses on the wall. Cells were visualized in a 20× objective of an inverted phase-contrast Diaphot Microscope (Nikon, Japan) and photographed with a long integration LIS-700 CCD video camera (Applitech; Holon, Israel), connected to a video recorder (AG-6730 S-VHS, Panasonic, Japan). The number of adherent cells resisting detachment by the elevated shear forces was determined after each interval by analysis of videotaped cell images, and was expressed as the percent of originally settled cells. All adhesion experiments were performed at least three times on multiple test fields.

SDF-1α = target: T3, SDF-1α (Homo sapiens, UniProt P48061); experiment: ELISA analysis of the synthetic chemokine-binding peptide; conditions: chemokine-coated wells, specific binding = at least two fold of binding to control proteins (BSA, Actin, Fibronectin)
T3 construct: purchased PeproTech, Inc. 300-28A
T3 sequence (P48061 22-89 limits assumed): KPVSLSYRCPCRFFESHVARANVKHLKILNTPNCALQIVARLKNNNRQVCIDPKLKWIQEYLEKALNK
Description: as §1, §2, §3, §4, §5, §6

[3] = tested on: chemokines MCP-1, SDF-1α, MIG, Eotaxin and IL-8; experiment: ELISA binding to the panel of chemokines (chemokine not singled out); set-up: species or system human; conditions: five chemokines tested, control binding level = one fold
Description: as §1, §2, §3
The present invention identifies chemokine-binding peptides with biological activity. The binding specificities of the various peptides to the chemokines were determined by screening against BSA, Actin and Fibronectin-coated wells as negative controls in parallel experiments. […]
The specific binding of the peptides was detected by screening methodology, using ELISA, as described in “Materials and Methods”, employing microplates coated with the various chemokines to be checked. The binding specificities of the various peptides to the various chemokines were determined by screening against BSA, Actin and Fibronectin-coated wells as negative controls in parallel experiments. […]

Eotaxin = target: T4, Eotaxin (Homo sapiens, UniProt P51671); experiment: ELISA analysis of the synthetic chemokine-binding peptide; conditions: chemokine-coated wells, specific binding = at least two fold of binding to control proteins (BSA, Actin, Fibronectin)
T4 construct: purchased PeproTech, Inc. 300-21
T4 sequence (P51671 24-97): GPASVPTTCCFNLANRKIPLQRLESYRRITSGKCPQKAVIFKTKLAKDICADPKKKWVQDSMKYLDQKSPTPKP
Description: as §1, §2, §3, §4, §5, §6

human IL-8 = target: T5, human IL-8 (Homo sapiens, UniProt P10145); experiment: as above; conditions: chemokine-coated wells, specific binding = at least two fold of binding to control proteins (BSA, Actin, Fibronectin)
T5 construct: human IL-8, (72 amino acids) (Cat. No. 200-08M); purchased PeproTech, Inc. 200-08M
T5 sequence (P10145 28-99 limits assumed): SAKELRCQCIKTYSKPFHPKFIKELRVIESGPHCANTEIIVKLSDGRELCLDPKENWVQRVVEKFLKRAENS
Description: as §1, §2, §3, §4, §5, §6

IL-8 = target: T6, IL-8 (Homo sapiens, UniProt P10145); experiment: Biovalidation: laminar flow assay, chemokine and VCAM-1 activated adhesion of T cells; type: cell-based; conditions: VCAM-1
T6 construct: human IL-8, (72 amino acids) (Cat. No. 200-08M); purchased PeproTech, Inc. 200-08M
T6 sequence (P10145 28-99): T5 sequence (P10145 28-99 limits assumed)

T1 sequence (P13500 24-99): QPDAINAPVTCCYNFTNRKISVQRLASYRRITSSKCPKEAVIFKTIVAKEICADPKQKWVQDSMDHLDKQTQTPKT

ACHASLKHRC [BKT-P48]
Bound chemokines (at least): MCP-1 (Human MCP-1): MCP-1

AHSLKSITNHGL [BKT-P44]
Bound chemokines (at least): MCP-1 (Human MCP-1): MCP-1

CAHLSPHKC [BKT-P50]
Bound chemokines (at least): MIG (MIG [1]): MIG

CDIPWRNEC [BKT-P10]
Bound chemokines (at least): MIG (MIG [1]): does not bind
Percentage of arrested cells (MIG [2]; MIG plus peptide (FIG. 4), MIG alone about 25-30%, control = VCAM-1 alone): 25%-30%
Reduction of the activity of MIG (MIG [2]; VCAM-1): no influence on the activity of MIG

CHHNLSWEC [BKT-P56]
Bound chemokines (at least): SDF-1α (SDF-1α): SDF-1α

CKESATYFC (ACKESATYFCGGGS-{K(biotin)-Gly}; disulfide 2-10 (inferred)) [BKT-P18]
Binding to the various chemokines [3]: no binding to the various chemokines

ESDLTHALHWLG [BKT-P51]
Bound chemokines (at least): MCP-1 (Human MCP-1): MCP-1

FSMDDPERVRSP [BKT-P9]
Binding to the various chemokines [3]: bind specifically to a single chemokine; also recorded: specifically bind to one specific chemokine

GDFNSGHHTTTR [BKT-P27]
Bound chemokines (at least): MCP-1 (Human MCP-1): MCP-1

GVHKHFYSRWLG [BKT-P33]
Bound chemokines (at least): Eotaxin (Eotaxin): Eotaxin

HHFHLPKLRPPV [BKT-P45]
Bound chemokines (at least): MCP-1 (Human MCP-1): MCP-1
Bound chemokines (at least): MIG (MIG [1]): MIG
Bound chemokines (at least): IL-8 (human IL-8): IL-8
Level of Antagonistic Effect (MIG [2]; Chemokine checked MIG, T cells, VCAM-1, peptide 10 μg/ml): + (+ 20%)
Reduction of the activity of MIG (MIG [2]; VCAM-1): about 20%
Level of Antagonistic Effect (IL-8; Chemokine checked IL-8, T cells, peptide 10 μg/ml): +++ (+++ 100%)
Abolishment of the activity of IL-8 (IL-8; T cell adhesion under flow): 100%

HHTWDTRIWQAF [BKT-P55]
Bound chemokines (at least): MCP-1 (Human MCP-1): MCP-1

HPTTPFIHMPNF (HPTTPIHMPNF) [BKT-P54]
Bound chemokines (at least): MIG (MIG [1]): MIG

HSACHASLKHRC [BKT-P49]
Bound chemokines (at least): MCP-1 (Human MCP-1): MCP-1
